The target in experiment [1] is T1, huIL-27 (Homo sapiens, UniProt Q14213+Q8NEV9).
T1 construct: purchased R&D Systems
T1 sequence (Q8NEV9 29-243): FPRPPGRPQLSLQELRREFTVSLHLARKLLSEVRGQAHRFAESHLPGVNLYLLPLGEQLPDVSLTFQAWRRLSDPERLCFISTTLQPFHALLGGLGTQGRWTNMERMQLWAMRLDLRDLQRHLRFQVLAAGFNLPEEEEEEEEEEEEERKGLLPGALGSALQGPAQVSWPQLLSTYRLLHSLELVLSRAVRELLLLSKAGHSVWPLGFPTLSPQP
T1 sequence (Q14213 21-229): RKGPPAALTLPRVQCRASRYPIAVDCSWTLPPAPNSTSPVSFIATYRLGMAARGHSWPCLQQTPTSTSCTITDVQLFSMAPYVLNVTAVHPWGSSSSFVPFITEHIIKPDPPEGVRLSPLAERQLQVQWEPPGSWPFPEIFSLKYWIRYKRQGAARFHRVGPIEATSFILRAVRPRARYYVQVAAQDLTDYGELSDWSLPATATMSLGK
As to the kind of experiment: Phospho-STAT3 (BIO-PLEX) neutralization of IL-27 by soluble receptors, mouse spleens. The following applies: ligand huIL-27 at EC90 (2 nM). It is filed as cell-based. An excerpt:
(§1) Whole mouse spleens were harvested from C57 B1/6 mice and washed two times with 1×PBS before being plated out at 2×10^5 cells/well in assay media (RPMI 1640 plus 10% fetal bovine serum) in 96-well, round-bottom tissue culture plates. Total human PBMC (peripheral blood mononuclear cells) were thawed from a frozen vial collected from a leukapherisis donation and washed two times with 1×PBS before being plated out at 10^6 cells/well in assay media in 96-well, round-bottom tissue culture plates. […] Following pre-incubation, treatments were added to the plates containing the cells and incubated together at 37° C. for 15 minutes.
(§2) Following incubation, cells were washed with ice-cold wash buffer (BIO-PLEX Cell Lysis Kit, BIO-RAD Laboratories, Hercules, Calif.) and put on ice to stop the reaction according to manufacturer's instructions. […]
(§3) Capture beads (BIO-PLEX Phospho-Stat3 Assay, BIO-RAD Laboratories) were combined with 50 μL of 1:1 diluted lysates and added to a 96-well filter plate according to manufacture's instructions (BIO-PLEX Phosphoprotein Detection Kit, BIO-RAD Laboratories). […] After the final wash, beads were resuspended in 125 μL/well of bead suspension buffer, shaken for 30 seconds, and read on an array reader (BIO-PLEX, BIO-RAD Laboratories) according to the manufacture's instructions. Data were analyzed using analytical software (BIO-PLEX MANAGER 3.0, BIO-RAD Laboratories). […]

Experiment [2] has as its target T2, muIL-27 (Mus musculus, UniProt O35228+Q8K3I6).
T2 construct: purchased R&D Systems
T2 sequence (Q8K3I6 29-234): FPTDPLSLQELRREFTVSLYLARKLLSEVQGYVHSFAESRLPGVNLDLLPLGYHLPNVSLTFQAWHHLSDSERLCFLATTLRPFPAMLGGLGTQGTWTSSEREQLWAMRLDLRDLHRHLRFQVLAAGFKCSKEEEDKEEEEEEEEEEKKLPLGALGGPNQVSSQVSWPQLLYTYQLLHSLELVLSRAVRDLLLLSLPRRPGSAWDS
T2 sequence (O35228 19-228): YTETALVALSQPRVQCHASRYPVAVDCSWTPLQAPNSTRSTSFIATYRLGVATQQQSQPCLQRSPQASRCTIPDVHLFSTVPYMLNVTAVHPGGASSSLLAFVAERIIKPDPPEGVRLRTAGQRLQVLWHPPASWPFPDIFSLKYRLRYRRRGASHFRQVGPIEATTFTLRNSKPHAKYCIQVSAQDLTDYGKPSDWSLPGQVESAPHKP
Described as above. Format: cell-based. The note with it: ligand muIL-27 at EC90 (0.2 nM).
From the text: as §1, §2, §3

B1: IL-27RAm(mFc1): Extracellular domain of mouse IL27RA fused to a wild type BALB/c mouse gamma2a constant region Fc tag (protein)
chain: MNRLERVALARLETPRLEGLLELELESLEMSLELELEGTRPRHGSPRGPRLEQCYSVGPRLEGILENCSWGLPRLEGDLEGLTPRPRVLEYHQSQKYHPRNRVWGLVKVPRSKQSWVTIPRRGLQFTMADKLELEIWGTQKGRPRLEWSSVSVASNLEGLTQMKPRDTPRQIFSQVASPISGLGLATLEGLATVQWAPRPRVWPRPRQKALETCQFRYKGLCQAGLAWTRLEGLPRQLEKTDGLETPRVGLMQNLEGLPRGTCYQVSGRCQVGLNGYPRWGGLWSSPRLESFQTPRFLEDPRGLDVWVSGTVCGLTSGKRAALELEVWKDPRRPRCVQVTYTVWFGAGDITTTQGLGLVPRCCKSPRVPRAWMGLWAVVSPRGNSTSWVPRPRTNLESLEVCLEAPRGLSAPRCDVGVSSADGSPRGIKVTWKQGTARGSPRLEGLYVVASPWAQDGDSLEDKLENWTRLEPRPRGNLESTLELEPRGGLFKGGVPRYRITVTAVYSGGLEAAAPRSVWGFRGLGLLEVPRLEAGPRAVWRLEPRDDPRPRGTPRVVALAWGGLVPRRHQLERGQATHYTFCIQSRGLESTVCRNVSSQTQTATLEPRNLEHSGSFKLEWVTVSTVALAGQGPRPRGPRDLESLEHLEPRDNRIRWKALEPRWFLESLEWGLELELEMGCGLESLEASTRCLEQARCLEHWRHKLELEPRQWIWGLRVPRDPRANSNSGQPRYIKGLVSLEPRQPRPRKDGPRILEGLVGLGLVGLLEQPRVVGLSPRKASAPRIYSGYGLKHFLEPRTPRGLGLLEGLELEV
modifications: left off: a dimerising Fc or GST
notes: Extracellular domain of mouse IL27RA fused to a wild type BALB/c mouse gamma2a constant region Fc tag
In general, IC50 refers to the concentration that inhibits the measured activity by half. For B1, the IC50 turned out to be 9.3 nM in experiment [1] and 0.18 nM in experiment [2].

For the origin of these results see US20100093076A1, “SOLUBLE IL-27 RECEPTOR” (priority 2006, published 2010).
